Measured values from the supplement of paper PMC6757056.
± gives the standard deviation of the averaged measurements.

B1: library; a variant is named by its letters at N, in order (parent)
chain: GCUGUCACCGGUGCUUGGUACGUUAUAUUCAGCCGGUCUGAUGAGUCUNNNNNNAGACGAAACAGC

Columns and labels:
(6R,S)-folinic acid [1] = variants of: B1; assay: normalized RNA/DNA level without ligand (relative to sTRSVctl = 100) (log10 (% of sTRSVctl)); HEK293T overexpressing SLC46A1; higher = less ribozyme self-cleavage, higher mRNA level; conditions: without (6R,S)-folinic acid; ligand present: no
Procedure, shortened: (§1)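 Library plasmids carrying ribozyme switches linked to mCherry, or to eGFP in some ligand experiments, were transfected into HEK293T at 4 µg per 6-well well, with any ligand added 1 h earlier. Seventy-two hours on, total RNA was extracted with EDTA and reverse-transcribed, amplified, barcoded and sequenced. RNA level was RNA over DNA reads normalized to a spiked-in non-cleaving sequence or to the top sequences, then scaled and log-transformed. The top set was 25 sequences, the transform was ×100 and log10, and sequences needed ≥100 DNA reads.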

(6R,S)-folinic acid [2] = variants of: B1; assay: normalized RNA/DNA level with ligand (relative to sTRSVctl = 100) (log10 (% of sTRSVctl)); HEK293T overexpressing SLC46A1; ligand concentration (+) RNA-Seq: 6 mM; higher = less ribozyme self-cleavage, higher mRNA level; conditions: with (6R,S)-folinic acid; ligand present: yes
Procedure, shortened: as §1

| Variant | normalized RNA/DNA level without ligand (log10) ((6R,S)-folinic acid [1]) | normalized RNA/DNA level with ligand (log10) ((6R,S)-folinic acid [2]) |
| --- | --- | --- |
| GACUCA | 2.004 ± 0.0082 | 1.98 ± 0.028 |
| GACUCG | 2.0319 ± 0.0013 | 2.05 ± 0.032 |
| AAACCC | 2.048 ± 0.0094 | 2.032 ± 0.0089 |
| AAACCG | 1.97 ± 0.0043 | 2 ± 0.029 |
| AAACCU | 2.0232 ± 0.0015 | 2.03 ± 0.031 |
| UAAGAC | 1.984 ± 0.00031 | 2.01 ± 0.034 |
| UAAGAU | 1.9446 ± 0.0012 | 2.01 ± 0.024 |
| UAACUC | 2.046 ± 0.0055 | 2.03 ± 0.045 |
| AAAUGU | 1.9431 ± 0.0016 | 1.99 ± 0.028 |
| UACUCA | 1.9962 ± 0.00016 | 1.98 ± 0.038 |
| UACUCG | 1.8448 ± 0.00067 | 1.99 ± 0.031 |
| UACUCC | 2.051 ± 0.012 | 2.034 ± 0.0051 |
| AAACGC | 1.996 ± 0.006 | 2.01 ± 0.032 |
| UAAUCA | 1.945 ± 0.013 | 1.97 ± 0.04 |
| UAAUCC | 2.001 ± 0.0044 | 2.03 ± 0.03 |
| UAAUCU | 2.021 ± 0.012 | 2.046 ± 0.0022 |
| UAAUCG | 1.795 ± 0.012 | 1.988 ± 0.016 |
| UACACC | 2.025 ± 0.011 | 1.99 ± 0.048 |
| UACACU | 2.017 ± 0.0061 | 2.03 ± 0.037 |
| CACCAG | 1.977 ± 0.019 | 2 ± 0.036 |
| CACCAA | 1.97 ± 0.016 | 1.99 ± 0.022 |
| CACCAC | 1.998 ± 0.019 | 1.99 ± 0.026 |
| GAACUG | 1.971 ± 0.0088 | 1.99 ± 0.028 |

| Variant | normalized RNA/DNA level without ligand (log10) ((6R,S)-folinic acid [1]) | normalized RNA/DNA level with ligand (log10) ((6R,S)-folinic acid [2]) |
| --- | --- | --- |
| GAACUA | 1.9884 ± 0.0016 | 2 ± 0.055 |
| GAACUU | 2.002 ± 0.013 | 1.98 ± 0.028 |
| GAACUC | 2.044 ± 0.0052 | 2.028 ± 0.012 |
| CACACC | 2.061 ± 0.0083 | 2 ± 0.073 |
| CACACG | 2.0281 ± 0.00028 | 2.04 ± 0.036 |
| CACAUG | 2.02 ± 0.01 | 2.018 ± 0.017 |
| CACAUC | 2.035 ± 0.0021 | 2.04 ± 0.025 |
| CACAUU | 2.02 ± 0.026 | 2.02 ± 0.059 |
| AACUAG | 1.94 ± 0.022 | 2.02 ± 0.039 |
| AACUAA | 1.97 ± 0.023 | 1.96 ± 0.026 |
| AACUAU | 1.975 ± 0.0066 | 2 ± 0.037 |
| GACUAA | 1.977 ± 0.008 | 1.98 ± 0.043 |
| UAACGU | 1.95 ± 0.028 | 2.003 ± 0.013 |
| GACAAG | 1.9442 ± 0.00015 | 2.008 ± 0.02 |
| GACAAU | 1.967 ± 0.012 | 1.99 ± 0.045 |
| UACCUU | 2.02 ± 0.0067 | 2.046 ± 0.014 |
| UACCUA | 2.0242 ± 0.0004 | 2.069 ± 0.019 |
| UAACCC | 1.991 ± 0.011 | 2 ± 0.035 |
| UAACCU | 2.01 ± 0.024 | 2.018 ± 0.0082 |
| AACCGU | 1.9935 ± 0.00042 | 2 ± 0.032 |
| AACCGC | 2.04 ± 0.029 | 2.013 ± 0.019 |
| AACCGA | 1.998 ± 0.014 | 1.99 ± 0.051 |
| AAAGGU | 1.939 ± 0.0029 | 2.01 ± 0.032 |

| Variant | normalized RNA/DNA level without ligand (log10) ((6R,S)-folinic acid [1]) | normalized RNA/DNA level with ligand (log10) ((6R,S)-folinic acid [2]) |
| --- | --- | --- |
| GACGCG | 1.9961 ± 0.00035 | 2.032 ± 0.015 |
| GACGCU | 2.05 ± 0.0071 | 2.03 ± 0.021 |
| GACGCA | 2.005 ± 0.0025 | 2.01 ± 0.045 |
| AACGCG | 1.909 ± 0.012 | 2.03 ± 0.026 |
| CAAUCC | 2.023 ± 0.0031 | 2.02 ± 0.049 |
| CAAUCG | 2.024 ± 0.012 | 2.02 ± 0.0061 |
| CAAUCA | 2.001 ± 0.0045 | 2.02 ± 0.033 |
| CAAUCU | 2.045 ± 0.0088 | 2.05 ± 0.028 |
| CACGGU | 1.954 ± 0.0088 | 1.95 ± 0.04 |
| CACGGA | 1.99 ± 0.038 | 2.02 ± 0.029 |
| CACGGC | 2.046 ± 0.014 | 2.03 ± 0.026 |
| CACGGG | 1.91 ± 0.0032 | 1.992 ± 0.0038 |
| CAAGUG | 2 ± 0.028 | 1.98 ± 0.046 |
| CAAGUC | 2.04 ± 0.021 | 2.02 ± 0.037 |
| CAAGUA | 1.9916 ± 0.0019 | 2.03 ± 0.045 |
| UACGCC | 2.053 ± 0.0091 | 2.07 ± 0.022 |
| UACGCU | 2.0313 ± 0.00036 | 2.043 ± 0.0085 |
| UACGCG | 1.79 ± 0.03 | 1.98 ± 0.058 |
| UACGCA | 1.992 ± 0.013 | 2.03 ± 0.037 |
| AACGUC | 2.066 ± 0.014 | 2.04 ± 0.021 |
| GAAGUC | 2.05 ± 0.021 | 2.04 ± 0.026 |
| UACCCA | 2.0351 ± 0.0019 | 2.02 ± 0.034 |
| UACCCU | 2.032 ± 0.0098 | 2 ± 0.041 |

| Variant | normalized RNA/DNA level without ligand (log10) ((6R,S)-folinic acid [1]) | normalized RNA/DNA level with ligand (log10) ((6R,S)-folinic acid [2]) |
| --- | --- | --- |
| UACCCC | 2.03 ± 0.024 | 2.022 ± 0.017 |
| AACAUU | 2.03 ± 0.019 | 2.02 ± 0.022 |
| GAAGGA | 1.952 ± 0.0097 | 2.009 ± 0.014 |
| GAAGGG | 1.87 ± 0.00046 | 2.03 ± 0.043 |
| GAAGGU | 1.974 ± 0.0097 | 2.02 ± 0.043 |
| UAAGGU | 1.844 ± 0.0031 | 1.967 ± 0.018 |
| UAAGGC | 1.98 ± 0.023 | 2.01 ± 0.043 |
| GACAUC | 2.05 ± 0.034 | 2.04 ± 0.082 |
| GACAUG | 1.925 ± 0.0021 | 1.994 ± 0.009 |
| GACACG | 1.971 ± 0.019 | 1.98 ± 0.034 |
| GACACU | 2.032 ± 0.015 | 2.046 ± 0.018 |
| GACACC | 2.026 ± 0.0065 | 1.98 ± 0.038 |
| CAAGAU | 1.97 ± 0.009 | 2.01 ± 0.025 |
| CAAGAC | 2.026 ± 0.0013 | 2.03 ± 0.038 |
| UAAGCC | 2 ± 0.0023 | 2.03 ± 0.038 |
| AACGGC | 2.058 ± 0.0083 | 2.03 ± 0.027 |
| AACGGA | 1.969 ± 0.019 | 2.02 ± 0.028 |
| AACGGU | 1.96 ± 0.022 | 2 ± 0.021 |
| AACGGG | 1.892 ± 0.0076 | 2.01 ± 0.032 |
| AACCCG | 1.99 ± 0.0042 | 2.02 ± 0.044 |
| AACCCU | 2.047 ± 0.013 | 2.04 ± 0.036 |
| AACCCA | 2.033 ± 0.016 | 2.03 ± 0.022 |
| GAACGU | 1.988 ± 0.0095 | 2 ± 0.027 |

| Variant | normalized RNA/DNA level without ligand (log10) ((6R,S)-folinic acid [1]) | normalized RNA/DNA level with ligand (log10) ((6R,S)-folinic acid [2]) |
| --- | --- | --- |
| AACGAC | 2.017 ± 0.013 | 1.991 ± 0.019 |
| AACGAU | 1.959 ± 0.018 | 2 ± 0.035 |
| AACCUG | 1.972 ± 0.0045 | 2.02 ± 0.039 |
| AACCUC | 2.1092 ± 0.0019 | 2.07 ± 0.052 |
| AACAGC | 2.0178 ± 0.00095 | 2.02 ± 0.022 |
| GACCUU | 2.079 ± 0.013 | 2.04 ± 0.028 |
| GACCUG | 2.06 ± 0.023 | 2.03 ± 0.027 |
| GACCUA | 2.05 ± 0.0099 | 2.05 ± 0.035 |
| GACCUC | 2.06 ± 0.0084 | 2.044 ± 0.0024 |
| GACAGC | 2.002 ± 0.0097 | 2.03 ± 0.046 |
| GACAGU | 1.99 ± 0.025 | 2 ± 0.053 |
| UACAAC | 2.0034 ± 0.0014 | 2.02 ± 0.034 |
| CAACAC | 2.0222 ± 0.00082 | 2.014 ± 0.019 |
| CAACAU | 1.978 ± 0.0086 | 2.02 ± 0.057 |
| CAACAG | 1.976 ± 0.00034 | 2.01 ± 0.062 |
| UAAUAA | 1.931 ± 0.0048 | 1.985 ± 0.013 |
| UAAUAC | 1.941 ± 0.0049 | 1.96 ± 0.021 |
| GACCCC | 2.017 ± 0.0088 | 2 ± 0.045 |
| GACCCG | 2.031 ± 0.0022 | 2 ± 0.06 |
| GACCCA | 2.018 ± 0.0089 | 2 ± 0.04 |
| CAAUUG | 2.014 ± 0.0049 | 2.06 ± 0.023 |
| CAAUUU | 1.995 ± 0.0068 | 2 ± 0.032 |
| CACCUA | 2.024 ± 0.005 | 2.06 ± 0.038 |
